According to patent US20260015399A1 (Boehringer Ingelheim, published 2026):
*1 amine or outer side, *2 acyl side, *3 side chain or, on linkers, in order; H or OH if unused. Side-chain parts run from the residue outwards. The star is where a group is joined. C18 diacid = O=C(O)CCCCCCCCCCCCCCCCC(=O)*; γGlu = O=C(O)[C@H](CCC(=O)[*:2])N[*:1]; Isovaleryl = CC(C)CC(=O)*; Ahx = NCCCCCC(=O)O

T1: human NPY2 receptor (human, UniProt P49146 1-381)
T1 construct: whole, on cells; also called hNPY2-R; hNPY2R
T1 sequence (looked up): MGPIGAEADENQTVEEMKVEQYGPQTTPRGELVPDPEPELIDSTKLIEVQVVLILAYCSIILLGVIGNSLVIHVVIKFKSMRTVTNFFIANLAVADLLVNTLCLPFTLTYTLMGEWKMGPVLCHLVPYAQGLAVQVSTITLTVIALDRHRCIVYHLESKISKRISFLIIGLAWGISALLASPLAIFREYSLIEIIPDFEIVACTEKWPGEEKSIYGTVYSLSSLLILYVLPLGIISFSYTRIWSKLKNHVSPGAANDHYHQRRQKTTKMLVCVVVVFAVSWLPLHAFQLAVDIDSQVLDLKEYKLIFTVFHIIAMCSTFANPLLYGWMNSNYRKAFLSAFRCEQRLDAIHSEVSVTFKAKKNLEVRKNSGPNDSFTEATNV

B1: Compound 66 (peptide)
peptide: Isovaleryl-APEK([Ahx-γGlu-C18 diacid])PEEDATPEELQRYYISLRHYYNWLTRQRY-NH2
SMILES: CC[C@H](C)[C@H](NC(=O)[C@H](Cc1ccc(O)cc1)NC(=O)[C@H](Cc1ccc(O)cc1)NC(=O)[C@H](CCCNC(=N)N)NC(=O)[C@H](CCC(N)=O)NC(=O)[C@H](CC(C)C)NC(=O)[C@H](CCC(=O)O)NC(=O)[C@H](CCC(=O)O)NC(=O)[C@@H]1CCCN1C(=O)[C@@H](NC(=O)[C@H](C)NC(=O)[C@H](CC(=O)O)NC(=O)[C@H](CCC(=O)O)NC(=O)[C@H](CCC(=O)O)NC(=O)[C@@H]1CCCN1C(=O)[C@H](CCCCNC(=O)CCCCCNC(=O)CC[C@H](NC(=O)CCCCCCCCCCCCCCCCC(=O)O)C(=O)O)NC(=O)[C@H](CCC(=O)O)NC(=O)[C@@H]1CCCN1C(=O)[C@H](C)NC(=O)CC(C)C)[C@@H](C)O)C(=O)N[C@@H](CO)C(=O)N[C@@H](CC(C)C)C(=O)N[C@@H](CCCNC(=N)N)C(=O)N[C@@H](Cc1c[nH]cn1)C(=O)N[C@@H](Cc1ccc(O)cc1)C(=O)N[C@@H](Cc1ccc(O)cc1)C(=O)N[C@@H](CC(N)=O)C(=O)N[C@@H](Cc1c[nH]c2ccccc12)C(=O)N[C@@H](CC(C)C)C(=O)N[C@H](C(=O)N[C@@H](CCCNC(=N)N)C(=O)N[C@@H](CCC(N)=O)C(=O)N[C@@H](CCCNC(=N)N)C(=O)N[C@@H](Cc1ccc(O)cc1)C(N)=O)[C@@H](C)O
B2: Compound 77 (peptide)
peptide: Isovaleryl-APAK([Ahx-γGlu-C18 diacid])PEEDASPEELQRYYVSLRHYQNWLTRQRY-NH2
SMILES: CC(C)CC(=O)N[C@@H](C)C(=O)N1CCC[C@H]1C(=O)N[C@@H](C)C(=O)N[C@@H](CCCCNC(=O)CCCCCNC(=O)CC[C@H](NC(=O)CCCCCCCCCCCCCCCCC(=O)O)C(=O)O)C(=O)N1CCC[C@H]1C(=O)N[C@@H](CCC(=O)O)C(=O)N[C@@H](CCC(=O)O)C(=O)N[C@@H](CC(=O)O)C(=O)N[C@@H](C)C(=O)N[C@@H](CO)C(=O)N1CCC[C@H]1C(=O)N[C@@H](CCC(=O)O)C(=O)N[C@@H](CCC(=O)O)C(=O)N[C@@H](CC(C)C)C(=O)N[C@@H](CCC(N)=O)C(=O)N[C@@H](CCCNC(=N)N)C(=O)N[C@@H](Cc1ccc(O)cc1)C(=O)N[C@@H](Cc1ccc(O)cc1)C(=O)N[C@H](C(=O)N[C@@H](CO)C(=O)N[C@@H](CC(C)C)C(=O)N[C@@H](CCCNC(=N)N)C(=O)N[C@@H](Cc1c[nH]cn1)C(=O)N[C@@H](Cc1ccc(O)cc1)C(=O)N[C@@H](CCC(N)=O)C(=O)N[C@@H](CC(N)=O)C(=O)N[C@@H](Cc1c[nH]c2ccccc12)C(=O)N[C@@H](CC(C)C)C(=O)N[C@H](C(=O)N[C@@H](CCCNC(=N)N)C(=O)N[C@@H](CCC(N)=O)C(=O)N[C@@H](CCCNC(=N)N)C(=O)N[C@@H](Cc1ccc(O)cc1)C(N)=O)[C@@H](C)O)C(C)C
B3: Compound 78 (peptide)
peptide: Isovaleryl-APAK([Ahx-γGlu-C18 diacid])PEEDASPEELQRYYVSLRHYYQWLTRQRY-NH2
SMILES: CC(C)CC(=O)N[C@@H](C)C(=O)N1CCC[C@H]1C(=O)N[C@@H](C)C(=O)N[C@@H](CCCCNC(=O)CCCCCNC(=O)CC[C@H](NC(=O)CCCCCCCCCCCCCCCCC(=O)O)C(=O)O)C(=O)N1CCC[C@H]1C(=O)N[C@@H](CCC(=O)O)C(=O)N[C@@H](CCC(=O)O)C(=O)N[C@@H](CC(=O)O)C(=O)N[C@@H](C)C(=O)N[C@@H](CO)C(=O)N1CCC[C@H]1C(=O)N[C@@H](CCC(=O)O)C(=O)N[C@@H](CCC(=O)O)C(=O)N[C@@H](CC(C)C)C(=O)N[C@@H](CCC(N)=O)C(=O)N[C@@H](CCCNC(=N)N)C(=O)N[C@@H](Cc1ccc(O)cc1)C(=O)N[C@@H](Cc1ccc(O)cc1)C(=O)N[C@H](C(=O)N[C@@H](CO)C(=O)N[C@@H](CC(C)C)C(=O)N[C@@H](CCCNC(=N)N)C(=O)N[C@@H](Cc1c[nH]cn1)C(=O)N[C@@H](Cc1ccc(O)cc1)C(=O)N[C@@H](Cc1ccc(O)cc1)C(=O)N[C@@H](CCC(N)=O)C(=O)N[C@@H](Cc1c[nH]c2ccccc12)C(=O)N[C@@H](CC(C)C)C(=O)N[C@H](C(=O)N[C@@H](CCCNC(=N)N)C(=O)N[C@@H](CCC(N)=O)C(=O)N[C@@H](CCCNC(=N)N)C(=O)N[C@@H](Cc1ccc(O)cc1)C(N)=O)[C@@H](C)O)C(C)C
B4: Compound 73 (peptide)
peptide: Isovaleryl-APEK([Ahx-γGlu-C18 diacid])PEEAASPEELQRYYVALRHYYNWLTRQRY-NH2
SMILES: CC(C)CC(=O)N[C@@H](C)C(=O)N1CCC[C@H]1C(=O)N[C@@H](CCC(=O)O)C(=O)N[C@@H](CCCCNC(=O)CCCCCNC(=O)CC[C@H](NC(=O)CCCCCCCCCCCCCCCCC(=O)O)C(=O)O)C(=O)N1CCC[C@H]1C(=O)N[C@@H](CCC(=O)O)C(=O)N[C@@H](CCC(=O)O)C(=O)N[C@@H](C)C(=O)N[C@@H](C)C(=O)N[C@@H](CO)C(=O)N1CCC[C@H]1C(=O)N[C@@H](CCC(=O)O)C(=O)N[C@@H](CCC(=O)O)C(=O)N[C@@H](CC(C)C)C(=O)N[C@@H](CCC(N)=O)C(=O)N[C@@H](CCCNC(=N)N)C(=O)N[C@@H](Cc1ccc(O)cc1)C(=O)N[C@@H](Cc1ccc(O)cc1)C(=O)N[C@H](C(=O)N[C@@H](C)C(=O)N[C@@H](CC(C)C)C(=O)N[C@@H](CCCNC(=N)N)C(=O)N[C@@H](Cc1c[nH]cn1)C(=O)N[C@@H](Cc1ccc(O)cc1)C(=O)N[C@@H](Cc1ccc(O)cc1)C(=O)N[C@@H](CC(N)=O)C(=O)N[C@@H](Cc1c[nH]c2ccccc12)C(=O)N[C@@H](CC(C)C)C(=O)N[C@H](C(=O)N[C@@H](CCCNC(=N)N)C(=O)N[C@@H](CCC(N)=O)C(=O)N[C@@H](CCCNC(=N)N)C(=O)N[C@@H](Cc1ccc(O)cc1)C(N)=O)[C@@H](C)O)C(C)C
B5: Compound 68 (peptide)
peptide: Isovaleryl-APEK([Ahx-γGlu-C18 diacid])PEEDAEPEELQRYYVSLRHYYQWLTRQRY-NH2
SMILES: CC(C)CC(=O)N[C@@H](C)C(=O)N1CCC[C@H]1C(=O)N[C@@H](CCC(=O)O)C(=O)N[C@@H](CCCCNC(=O)CCCCCNC(=O)CC[C@H](NC(=O)CCCCCCCCCCCCCCCCC(=O)O)C(=O)O)C(=O)N1CCC[C@H]1C(=O)N[C@@H](CCC(=O)O)C(=O)N[C@@H](CCC(=O)O)C(=O)N[C@@H](CC(=O)O)C(=O)N[C@@H](C)C(=O)N[C@@H](CCC(=O)O)C(=O)N1CCC[C@H]1C(=O)N[C@@H](CCC(=O)O)C(=O)N[C@@H](CCC(=O)O)C(=O)N[C@@H](CC(C)C)C(=O)N[C@@H](CCC(N)=O)C(=O)N[C@@H](CCCNC(=N)N)C(=O)N[C@@H](Cc1ccc(O)cc1)C(=O)N[C@@H](Cc1ccc(O)cc1)C(=O)N[C@H](C(=O)N[C@@H](CO)C(=O)N[C@@H](CC(C)C)C(=O)N[C@@H](CCCNC(=N)N)C(=O)N[C@@H](Cc1c[nH]cn1)C(=O)N[C@@H](Cc1ccc(O)cc1)C(=O)N[C@@H](Cc1ccc(O)cc1)C(=O)N[C@@H](CCC(N)=O)C(=O)N[C@@H](Cc1c[nH]c2ccccc12)C(=O)N[C@@H](CC(C)C)C(=O)N[C@H](C(=O)N[C@@H](CCCNC(=N)N)C(=O)N[C@@H](CCC(N)=O)C(=O)N[C@@H](CCCNC(=N)N)C(=O)N[C@@H](Cc1ccc(O)cc1)C(N)=O)[C@@H](C)O)C(C)C
B6: Compound 69 (peptide)
peptide: Isovaleryl-APEK([Ahx-γGlu-C18 diacid])PPADASPEETQRYYVSLRHYYNWLTRQRY-NH2
SMILES: CC(C)CC(=O)N[C@@H](C)C(=O)N1CCC[C@H]1C(=O)N[C@@H](CCC(=O)O)C(=O)N[C@@H](CCCCNC(=O)CCCCCNC(=O)CC[C@H](NC(=O)CCCCCCCCCCCCCCCCC(=O)O)C(=O)O)C(=O)N1CCC[C@H]1C(=O)N1CCC[C@H]1C(=O)N[C@@H](C)C(=O)N[C@@H](CC(=O)O)C(=O)N[C@@H](C)C(=O)N[C@@H](CO)C(=O)N1CCC[C@H]1C(=O)N[C@@H](CCC(=O)O)C(=O)N[C@@H](CCC(=O)O)C(=O)N[C@H](C(=O)N[C@@H](CCC(N)=O)C(=O)N[C@@H](CCCNC(=N)N)C(=O)N[C@@H](Cc1ccc(O)cc1)C(=O)N[C@@H](Cc1ccc(O)cc1)C(=O)N[C@H](C(=O)N[C@@H](CO)C(=O)N[C@@H](CC(C)C)C(=O)N[C@@H](CCCNC(=N)N)C(=O)N[C@@H](Cc1c[nH]cn1)C(=O)N[C@@H](Cc1ccc(O)cc1)C(=O)N[C@@H](Cc1ccc(O)cc1)C(=O)N[C@@H](CC(N)=O)C(=O)N[C@@H](Cc1c[nH]c2ccccc12)C(=O)N[C@@H](CC(C)C)C(=O)N[C@H](C(=O)N[C@@H](CCCNC(=N)N)C(=O)N[C@@H](CCC(N)=O)C(=O)N[C@@H](CCCNC(=N)N)C(=O)N[C@@H](Cc1ccc(O)cc1)C(N)=O)[C@@H](C)O)C(C)C)[C@@H](C)O

Each binder was assayed against T1, human NPY2 receptor (assay: RLB: displacement of 125I-PYY(1-36) from hNPY2R membranes).

Ki | Binder
2.33 nM | B1
9.73 nM | B2
1.8 nM | B3
2.16 nM | B4
9.07 nM | B5
0.54 nM | B6
